Measured values published in the nanobody polyreactivity screen of Harvey et al. (2022).

experiment: yeast display, Sf9 membrane polyspecificity reagent, FACS + sequencing; frameworks hold sequencing errors
Procedure, shortened: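 A synthetic nanobody library was expressed on Saccharomyces cerevisiae BJ5465 by galactose induction for 36–48 hours. The library was stained for 1 hour at 4 °C with 10% biotinylated, detergent-solubilized Sf9 membrane reagent and enriched with streptavidin microbeads before FACS. Low and high (top ~1%) gates were set on anti-HA fluorescence for expression and streptavidin fluorescence for reagent binding, and each polyreactivity label reflects the gate of origin.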

Which “polyreactivity (PSR sort gate)” value does the source give for “QVQLVESGGGLVQAGGSLRLSCAASGSTFLYNAIGWYRQAPGKERELVAAISSGGRTKYADSVKGRFTISRDTAKNTVYLQMNSLKPEDTAVYYCAAESYTGKYCWVWKWYDYWGQGTQVTVSS” here?
The value was “low polyreactivity”.

Which “polyreactivity (PSR sort gate)” value does the source give for “QVQLVESGGGLVQAGGSLRLSCAASGSTFLYYAMGWSRQAPGKERELVAVISWSGVSTYYADSVKGRFTISRDNAKNSVYLQMNSLKPEDTAVYYCYTGYHYIRSYGYWGQGTQVTVSS” here?
The value was “low polyreactivity”.

Which “polyreactivity (PSR sort gate)” value does the source give for “QVQLVESGGGLVQAGGSLRLSCAASGSTFLYYAMGWYRQAPGKERELVAVIRLDAGRTYYADSVKGRFTISRDNAKNTVYFQMNSLKPEDTAVYYCAAKGSFRTYGGGNYWGQGTQVTVSS” here?
The value was “high polyreactivity”.

With “QVQLVESGGGLVQAGGSLRLSCAASGSTFLYYAMGWYRQAPGKESELVAAIDSGGSTYYADSVKGRFTISRDNAKNTVYLQMNSLKPEDTAVYYCNADPPPEYYPDKDNYWGQGTQVTVSS” as the sequence, how does the “polyreactivity (PSR sort gate)” value read?
The value was “low polyreactivity”.

For “QVQLVESGGGLVQAGGSLRLSCAASGSTFLYYAMGWYRQAPGKESELVARITTRVGRTYYADSVKGRFTISRDNAKNTVYLQMNSLKPEDTAVYYCNAPYLKSRFRAYYHWGQGTQVTVAS”, which “polyreactivity (PSR sort gate)” value is on record?
Its value is “high polyreactivity”.

For “QVQLVESGGGLVQAGGSLRLSCAASGSTFLYYAMGWYRQATGKERELVAAIDSGGSTYYADSVKGRFTISRDNAKNTVYLQMNSLKPEDTAVYYCNADFADHWPPNGPGAHDYWGQGTQVTVSS”, which “polyreactivity (PSR sort gate)” value is on record?
Its value is “low polyreactivity”.

For “QVQLVESGGGLVQAGGSLRLSCAASGSTFNAYAMGWYRQAPGKERELVAAITDGDSTNYADSVKGRSTISRDNAKNTVYLQMNSLKPEDTAVYYCAKDSSVGDGDDGWVWFDLYYWGQGTQVTVSS”, which “polyreactivity (PSR sort gate)” value is on record?
The value was “low polyreactivity”.

Which “polyreactivity (PSR sort gate)” value does the source give for “QVQLVESGGGLVQAGGSLRLSCAASGSTFNAYDMGWYRQAPGKERELVAAISTSGDSTYFADSVKGRFTISRDNAKNTVYLQMNSLKPEDTAVYYCARDIYHYGYDYWGQGTQVTVSS” here?
The value was “low polyreactivity”.

Which “polyreactivity (PSR sort gate)” value does the source give for “QVQLVESGGGLVQAGGSLRLSCAASGSTFNCYHMGWYRQAPGKEMELVAAITGSGGYTYYADSVKGRFTISRDNAKNTVYLQMKSLNPEETAVYYCAAKKVAGRRFYYWGQGTQVTVSS” here?
The value was “low polyreactivity”.

Which “polyreactivity (PSR sort gate)” value does the source give for “QVQLVESGGGLVQAGGSLRLSCAASGSTFNDNAMGWYRQAPGKERELVAGISYSGGSTYYADSVKGRFTISRDHAKNTVYLQMNSLKPEDTAVYYCNADVTGLSQFGYWGQGTQVTVSS” here?
The value was “low polyreactivity”.

For “QVQLVESGGGLVQAGGSLRLSCAASGSTFNDYDMGWYRQAPGNERELVAAISSGGSTYYADSVKGRFTISRDNAKNTVYLQMNSLKPEDTAVYYCAAVLGVWGGVGSEGDFWGQGTQVTVSS”, which “polyreactivity (PSR sort gate)” value is on record?
The value was “low polyreactivity”.

Which “polyreactivity (PSR sort gate)” value does the source give for “QVQLVESGGGLVQAGGSLRLSCAASGSTFNDYTMGWYRQAPGKERELVAAITDSGGSTYYADSVKGRFTISRDNAKNTVYLQMNSLKPEDTAVYYCAAAVPELYEVRYHDDYWGQGTQVTVSS” here?
The value was “low polyreactivity”.

Which “polyreactivity (PSR sort gate)” value does the source give for “QVQLVESGGGLVQAGGSLRLSCAASGSTFNFYAMGWYRQAPGKDREFVAAITSSGDSTYYADSVKGRFTISRDNAKNTAYLQMNSLKPEDTAVYYCAARLRWRYSYDYWGQGTQVTVSS” here?
Its value is “high polyreactivity”.

For “QVQLVESGGGLVQAGGSLRLSCAASGSTFNGYAMGWYRQAPGKERELVAAISKRGGGTYYADSVKGRFTISRDNAKNTVYLQMNSLKPEDTAVYYCAAVSGPFVQTSGNGEYDYWGQGTQVTVSS”, which “polyreactivity (PSR sort gate)” value is on record?
The value was “low polyreactivity”.

Which “polyreactivity (PSR sort gate)” value does the source give for “QVQLVESGGGLVQAGGSLRLSCAASGSTFNGYAMGWYRQAPGKERELVAAISSRSGRTYYADSVKGRFTISRDNAKNTVYLQMNSLKPEDTAVYYCAAYNGSRRQEFDYWGQGTQVTVSS” here?
Its value is “high polyreactivity”.

With “QVQLVESGGGLVQAGGSLRLSCAASGSTFNINAMGWYRPAPRKERELVARIRASGASTYYADSVKGRFTISRDNAKITVYLQMNSLKPDDTAVYYCAAYTYSFRANHDYWGQGTQVTVSS” as the sequence, how does the “polyreactivity (PSR sort gate)” value read?
Its value is “high polyreactivity”.

Which “polyreactivity (PSR sort gate)” value does the source give for “QVQLVESGGGLVQAGGSLRLSCAASGSTFNIYAMGWYRQAPGKEREFVASIRWSGGSTYYADSVKGRFTISRDNAKNTVYLQMNSLKPEDTAVYYCAGRTFWGAYDYWGQGTQVTVSS” here?
Its value is “high polyreactivity”.

With “QVQLVESGGGLVQAGGSLRLSCAASGSTFNNAMGWYRQPPGKERELVAAITRSGVRTYYADSVKGRFTISRDNAKNTVYLQMNSLKPEDTAVYYCAAGFQSRRYYAGYEYWGQGTQVTVSS” as the sequence, how does the “polyreactivity (PSR sort gate)” value read?
The value was “high polyreactivity”.

Which “polyreactivity (PSR sort gate)” value does the source give for “QVQLVESGGGLVQAGGSLRLSCAASGSTFNQNAMGWYRQAPGKERELVAAITVDGSSTYYADSVKGRFTISRDNAKNTVYLQMNSLKPEDTAVYYCAAGYSARSSGYTGGYDYWGQGTQVTVSS” here?
The value was “high polyreactivity”.

For “QVQLVESGGGLVQAGGSLRLSCAASGSTFNRNTMGWYRQAPGKERELVASINRGGSTYYADSVKGRFTISRDNAKNTVYLQMNSLKPEDTAVYYCAKRVRKSYTGTQAPKKFGYWGQGSQVTVSS”, which “polyreactivity (PSR sort gate)” value is on record?
Its value is “low polyreactivity”.

For “QVQLVESGGGLVQAGGSLRLSCAASGSTFNRYAMGWYRQAPGKERELVAAISSGGTTYYADSVKGRFTSSRDNAKNTVYLQMNSLKPEDTAVYYCNARKYGWVQRIIIYDYWGQGTQVTVSS”, which “polyreactivity (PSR sort gate)” value is on record?
Its value is “high polyreactivity”.
